First the molecules themselves.
B1: ADGRA1, Q86SQ6 (peptide)
chain: TGPWKNETTV
B2: SCN4A, P35499 (peptide)
chain: VRPGVKESLV

A word on the pKd: it is the Kd on a negative log10 scale, so that one unit is a factor of ten.

Chain of Inadl_9, Q8NI35 (Q8NI35 1530-1615): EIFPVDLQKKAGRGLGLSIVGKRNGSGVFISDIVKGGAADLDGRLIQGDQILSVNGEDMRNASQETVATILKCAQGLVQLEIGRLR
Chain of GORASP1, Q9BQQ3 (Q9BQQ3 1-208): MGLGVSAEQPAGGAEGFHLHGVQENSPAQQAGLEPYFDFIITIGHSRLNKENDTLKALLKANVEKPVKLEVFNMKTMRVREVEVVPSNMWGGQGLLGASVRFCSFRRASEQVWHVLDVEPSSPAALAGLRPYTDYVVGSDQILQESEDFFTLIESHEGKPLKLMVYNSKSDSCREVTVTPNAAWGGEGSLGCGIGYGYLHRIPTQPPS
Chain of GRIP2_7, Q9C0E4 (Q9C0E4 934-1023): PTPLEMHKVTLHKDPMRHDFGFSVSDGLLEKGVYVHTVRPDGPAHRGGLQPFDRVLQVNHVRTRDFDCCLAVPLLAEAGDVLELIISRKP
Chain of MAGI1_1, Q96QZ7 (Q96QZ7 1-106): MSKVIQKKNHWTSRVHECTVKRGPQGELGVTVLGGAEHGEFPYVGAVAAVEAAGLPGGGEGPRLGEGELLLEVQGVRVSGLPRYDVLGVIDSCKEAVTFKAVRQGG

The target of the first assay is Inadl_8, Q8NI35. Description: holdup assay. Also on record: key: below the threshold = too weak to quantify, mostly under pKd 3.1 to 4. To be noted: plain residues with an end cap or a label only (N-terminal biotin on a linker: ado-ado).
Chain of Inadl_8, Q8NI35 (Q8NI35 1425-1530): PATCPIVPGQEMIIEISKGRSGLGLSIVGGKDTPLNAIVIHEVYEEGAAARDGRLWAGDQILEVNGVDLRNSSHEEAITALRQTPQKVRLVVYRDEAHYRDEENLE
On to B1, for which the pKd entry is “below the threshold”.
Turning to B2, the pKd came out at 4.15.

The target in the next assay is DLG2_3, Q15700. As to the kind of experiment: holdup assay. Also on record: key: below the threshold = too weak to quantify, mostly under pKd 3.1 to 4. To be noted: plain residues with an end cap or a label only (N-terminal biotin on a linker: ado-ado).
Consider B1, for which the pKd was determined as 4.64.
As for B2, the pKd is 4.27.

Another assay has as its target GRIP2_7, Q9C0E4. Description: holdup assay. Further details: key: below the threshold = too weak to quantify, mostly under pKd 3.1 to 4. As to conditions: plain residues with an end cap or a label only (N-terminal biotin on a linker: ado-ado).
Regarding B1, the pKd result is reported as “below the threshold”.
On to B2, for which the pKd entry is “below the threshold”.

The target in another assay is T1, SHANK1, Q9Y566.
T1 sequence (Q9Y566 658-767, limits assumed, looked up): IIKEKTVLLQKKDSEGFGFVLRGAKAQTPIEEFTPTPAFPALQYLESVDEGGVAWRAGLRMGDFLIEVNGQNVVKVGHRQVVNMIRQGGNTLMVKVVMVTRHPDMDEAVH
As to the kind of experiment: holdup assay. Further details: key: below the threshold = too weak to quantify, mostly under pKd 3.1 to 4. To be noted: plain residues with an end cap or a label only (N-terminal biotin on a linker: ado-ado).
Turning to B1, the pKd result is “below the threshold”.
Same read-out and setting: the same measure for B2: “below the threshold”.

The target of the next assay is T2, TJP3_3, O95049.
T2 sequence (O95049 375-456, limits assumed, looked up): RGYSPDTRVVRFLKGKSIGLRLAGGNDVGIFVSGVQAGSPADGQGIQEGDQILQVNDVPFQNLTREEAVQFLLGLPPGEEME
As to the kind of experiment: holdup assay. Also on record: key: below the threshold = too weak to quantify, mostly under pKd 3.1 to 4. To be noted: plain residues with an end cap or a label only (N-terminal biotin on a linker: ado-ado).
B1: the pKd entry is recorded as “below the threshold”.
Turning to B2, the negative logarithm of the Kd (pKd) entry is “below the threshold”.

A further assay deals with T3, GRIP1_5, Q9Y3R0.
T3 sequence (Q9Y3R0 568-668, limits assumed, looked up): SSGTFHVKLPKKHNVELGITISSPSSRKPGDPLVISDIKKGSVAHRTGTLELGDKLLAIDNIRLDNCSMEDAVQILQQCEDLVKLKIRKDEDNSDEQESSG
As to the kind of experiment: holdup assay. To be noted: plain residues with an end cap or a label only (N-terminal biotin on a linker: ado-ado). Further details: key: below the threshold = too weak to quantify, mostly under pKd 3.1 to 4.
On to B1, for which the negative-log Kd (pKd) entry is given as “below the threshold”.
The same measure, in the same setting: under B2 stands “below the threshold”.

The target of a further assay is PARD3_3, Q8TEW0. Description: holdup assay. Further details: key: below the threshold = too weak to quantify, mostly under pKd 3.1 to 4. To be noted: plain residues with an end cap or a label only (N-terminal biotin on a linker: ado-ado).
Chain of PARD3_3, Q8TEW0 (Q8TEW0 582-685): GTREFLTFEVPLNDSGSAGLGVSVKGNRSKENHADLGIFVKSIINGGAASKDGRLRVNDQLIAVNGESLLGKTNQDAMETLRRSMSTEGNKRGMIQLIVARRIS
Take B1: the pKd entry is given as “below the threshold”.
The same measure, in the same setting: under B2 stands “below the threshold”.

The target of a further assay is T4, GRIP1_2, Q9Y3R0.
T4 sequence (Q9Y3R0 145-248, limits assumed, looked up): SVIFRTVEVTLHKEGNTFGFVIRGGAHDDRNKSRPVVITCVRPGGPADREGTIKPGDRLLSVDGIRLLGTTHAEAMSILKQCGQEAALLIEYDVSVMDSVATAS
As to the kind of experiment: holdup assay. Further details: key: below the threshold = too weak to quantify, mostly under pKd 3.1 to 4. As to conditions: plain residues with an end cap or a label only (N-terminal biotin on a linker: ado-ado).
Regarding B1, the pKd entry is reported as “below the threshold”.
Same read-out and setting: under B2 stands “below the threshold”.

Another assay concerns the target MAGI1_1, Q96QZ7. Description: holdup assay. Also on record: key: below the threshold = too weak to quantify, mostly under pKd 3.1 to 4. To be noted: plain residues with an end cap or a label only (N-terminal biotin on a linker: ado-ado).
B1: the pKd entry is “below the threshold”.
On to B2, for which the pKd result was “below the threshold”.

The target in another assay is T5, APBA1_1, Q02410.
T5 sequence (Q02410 651-752, limits assumed, looked up): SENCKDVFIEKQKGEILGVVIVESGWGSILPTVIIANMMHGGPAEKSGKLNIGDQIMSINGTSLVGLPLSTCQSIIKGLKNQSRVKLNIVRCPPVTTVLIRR
As to the kind of experiment: holdup assay. Further details: key: below the threshold = too weak to quantify, mostly under pKd 3.1 to 4. To be noted: plain residues with an end cap or a label only (N-terminal biotin on a linker: ado-ado).
Turning to B1, the pKd result is recorded as “below the threshold”.
For B2, the negative logarithm of the Kd (pKd) entry is reported as “below the threshold”.

Another assay deals with GRID2IP_2, A4D2P6. Description: holdup assay. To be noted: plain residues with an end cap or a label only (N-terminal biotin on a linker: ado-ado). Also on record: key: below the threshold = too weak to quantify, mostly under pKd 3.1 to 4.
Chain of GRID2IP_2, A4D2P6 (A4D2P6 272-370): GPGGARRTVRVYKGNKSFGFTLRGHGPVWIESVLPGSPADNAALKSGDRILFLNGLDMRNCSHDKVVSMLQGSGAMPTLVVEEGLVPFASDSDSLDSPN
On to B1, for which the pKd result is “below the threshold”.
As for B2, the pKd came to 3.64.

The target of the next assay is T6, APBA2_1, Q99767.
T6 sequence (Q99767 563-664, limits assumed, looked up): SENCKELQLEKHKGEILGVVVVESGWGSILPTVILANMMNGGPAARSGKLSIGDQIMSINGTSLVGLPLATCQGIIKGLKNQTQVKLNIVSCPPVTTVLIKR
As to the kind of experiment: holdup assay. Also on record: key: below the threshold = too weak to quantify, mostly under pKd 3.1 to 4. To be noted: plain residues with an end cap or a label only (N-terminal biotin on a linker: ado-ado).
Regarding B1, the pKd entry is listed as “below the threshold”.
Regarding B2, the negative logarithm of the Kd (pKd) result is given as “below the threshold”.

In another assay the target is DLG1_3, Q12959. Description: holdup assay. Further details: key: below the threshold = too weak to quantify, mostly under pKd 3.1 to 4. As to conditions: plain residues with an end cap or a label only (N-terminal biotin on a linker: ado-ado).
Chain of DLG1_3, Q12959 (Q12959 457-571): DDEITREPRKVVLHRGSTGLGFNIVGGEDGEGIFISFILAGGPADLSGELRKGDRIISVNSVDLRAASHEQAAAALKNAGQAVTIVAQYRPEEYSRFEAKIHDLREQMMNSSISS
Molecule B1 showed a pKd of 4.47.
Still for that read-out and setting: the same measure for B2: 3.97.

A further assay addresses Inadl_9, Q8NI35. As to the kind of experiment: holdup assay. Further details: key: below the threshold = too weak to quantify, mostly under pKd 3.1 to 4. As to conditions: plain residues with an end cap or a label only (N-terminal biotin on a linker: ado-ado).
As for B1, the pKd result is “below the threshold”.
Consider B2, for which the pKd amounted to 3.71.

The target of another assay is T7, NHERF3_1, Q5T2W1.
T7 sequence (Q5T2W1 4-100, limits assumed, looked up): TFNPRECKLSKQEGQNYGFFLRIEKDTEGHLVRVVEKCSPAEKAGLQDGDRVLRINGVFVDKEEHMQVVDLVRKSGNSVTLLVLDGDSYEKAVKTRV
Description: holdup assay. Also on record: key: below the threshold = too weak to quantify, mostly under pKd 3.1 to 4. To be noted: plain residues with an end cap or a label only (N-terminal biotin on a linker: ado-ado).
For the molecule B1, the negative-log Kd (pKd) result is listed as “below the threshold”.
B2 registered a pKd of 4.6.

A further assay concerns the target GORASP1, Q9BQQ3. Description: holdup assay. Further details: key: below the threshold = too weak to quantify, mostly under pKd 3.1 to 4. As to conditions: plain residues with an end cap or a label only (N-terminal biotin on a linker: ado-ado).
Regarding B1, the pKd result is given as “below the threshold”.
On the same count and under the same terms, the same measure for B2: “below the threshold”.

The target in a further assay is T8, APBA3_1, O96018.
T8 sequence (O96018 389-490, limits assumed, looked up): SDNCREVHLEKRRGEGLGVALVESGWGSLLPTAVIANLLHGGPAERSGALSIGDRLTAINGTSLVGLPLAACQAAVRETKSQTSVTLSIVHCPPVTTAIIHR
As to the kind of experiment: holdup assay. Further details: key: below the threshold = too weak to quantify, mostly under pKd 3.1 to 4. To be noted: plain residues with an end cap or a label only (N-terminal biotin on a linker: ado-ado).
On to B1, for which the pKd result was “below the threshold”.
Regarding B2, the pKd entry was “below the threshold”.

Another assay has as its target T9, SNTB1, Q13884.
T9 sequence (Q13884 107-205, limits assumed, looked up): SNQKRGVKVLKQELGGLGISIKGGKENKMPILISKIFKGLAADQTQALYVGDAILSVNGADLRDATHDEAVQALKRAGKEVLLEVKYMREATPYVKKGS
Description: holdup assay. As to conditions: plain residues with an end cap or a label only (N-terminal biotin on a linker: ado-ado). Also on record: key: below the threshold = too weak to quantify, mostly under pKd 3.1 to 4.
In turn, B1 displayed a pKd of 4.67.
On the same count and under the same terms, the same measure for B2: 5.05.

The next assay addresses T10, SNTG1, Q9NSN8.
T10 sequence (Q9NSN8 52-150, limits assumed, looked up): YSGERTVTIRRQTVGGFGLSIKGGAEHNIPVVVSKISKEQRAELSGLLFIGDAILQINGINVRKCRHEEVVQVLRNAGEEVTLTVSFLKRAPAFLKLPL
As to the kind of experiment: holdup assay. Also on record: key: below the threshold = too weak to quantify, mostly under pKd 3.1 to 4. To be noted: plain residues with an end cap or a label only (N-terminal biotin on a linker: ado-ado).
Molecule B1 showed a pKd of 4.19.
For B2, the negative logarithm of the Kd (pKd) was 4.85.

For a further assay, the target named is T11, MPDZ_5, O75970.
T11 sequence (O75970 695-796, limits assumed, looked up): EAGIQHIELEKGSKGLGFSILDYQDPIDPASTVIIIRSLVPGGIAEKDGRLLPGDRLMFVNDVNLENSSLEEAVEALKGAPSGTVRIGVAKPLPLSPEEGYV
Description: holdup assay. Further details: key: below the threshold = too weak to quantify, mostly under pKd 3.1 to 4. To be noted: plain residues with an end cap or a label only (N-terminal biotin on a linker: ado-ado).
Take B1: the pKd result is “below the threshold”.
For the molecule B2, the pKd result was “below the threshold”.

Another assay has as its target T12, SNTG2, Q9NY99.
T12 sequence (Q9NY99 68-166, limits assumed, looked up): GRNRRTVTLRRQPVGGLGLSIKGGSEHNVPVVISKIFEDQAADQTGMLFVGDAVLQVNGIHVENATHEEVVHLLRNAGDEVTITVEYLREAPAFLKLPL
As to the kind of experiment: holdup assay. Also on record: key: below the threshold = too weak to quantify, mostly under pKd 3.1 to 4. As to conditions: plain residues with an end cap or a label only (N-terminal biotin on a linker: ado-ado).
Regarding B1, the pKd turned out to be 4.26.
On the same count and under the same terms, under B2 stands 4.77.

The target in a further assay is GRIP2_6, Q9C0E4. Description: holdup assay. Also on record: key: below the threshold = too weak to quantify, mostly under pKd 3.1 to 4. As to conditions: plain residues with an end cap or a label only (N-terminal biotin on a linker: ado-ado).
Chain of GRIP2_6, Q9C0E4 (Q9C0E4 648-740): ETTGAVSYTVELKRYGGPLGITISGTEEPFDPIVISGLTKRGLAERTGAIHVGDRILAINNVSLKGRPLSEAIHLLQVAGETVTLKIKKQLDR
For the molecule B1, the pKd result is given as “below the threshold”.
The same measure, in the same setting: the same measure for B2: “below the threshold”.

Another assay concerns the target GOPC, Q9HD26. Description: holdup assay. Also on record: key: below the threshold = too weak to quantify, mostly under pKd 3.1 to 4. To be noted: plain residues with an end cap or a label only (N-terminal biotin on a linker: ado-ado).
In turn, B1 registered a pKd of 3.69.
The same measure, in the same setting: under B2 stands “below the threshold”.

In the next assay the target is AHNAK1, Q09666. Description: holdup assay. Also on record: key: below the threshold = too weak to quantify, mostly under pKd 3.1 to 4. As to conditions: plain residues with an end cap or a label only (N-terminal biotin on a linker: ado-ado).
Chain of AHNAK1, Q09666 (Q09666 4-100): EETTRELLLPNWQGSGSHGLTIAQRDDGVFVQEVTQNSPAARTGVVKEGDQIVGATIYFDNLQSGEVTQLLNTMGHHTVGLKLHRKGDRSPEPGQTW
For the molecule B1, the pKd entry is “below the threshold”.
As for B2, the pKd entry is on record as “below the threshold”.
